Experimental findings from the supplement of paper PMC9112550, “Optimization of the antimicrobial peptide Bac7 by deep mutational scanning” (BMC Biology, 2022) are described below.
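Also: peptides expressed intracellularly from a pBAD plasmid library in pooled LB shake-flask culture, induced with 0.3% L-arabinose, DNA abundance read by NGS, three biological replicates, DESeq2 with apeglm shrinkage.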

The test system of this data set is Escherichia coli TOP10. Nature of the data set: shrunken log2 fold change of peptide-encoding DNA abundance (4.5 h post-induction vs induction); higher = less antimicrobial activity (less host growth inhibition). The following applies: time post-induction: 4.5 h; library: site-saturation at positions 5, 18, 19, 20.
Regarding RRIRVRPPRLPRPRPRPHIGPRP, the “shrunken log2 fold change” value is -0.0312. With RRIRGRPPRLPRPRPRPKTRPRP, the “shrunken log2 fold change” value was 0.884. Then RRIRVRPPRLPRPRPRPTMGPRP, with 0.04; and RRIRFRPPRLPRPRPRPNLIPRP, with -0.347. With RRIRQRPPRLPRPRPRPMICPRP, the “shrunken log2 fold change” value is 0.013.

As to RRIRLRPPRLPRPRPRPQGCPRP, the “shrunken log2 fold change” value amounted to 0.0879. For RRIRCRPPRLPRPRPRPTHAPRP, the “shrunken log2 fold change” value is 0.975. With RRIRCRPPRLPRPRPRPCVIPRP the figure was -0.334; with RRIRSRPPRLPRPRPRPWPDPRP, -0.14.

With RRIRLRPPRLPRPRPRPAGTPRP, the “shrunken log2 fold change” value came to 0.216.

In the case of RRIRTRPPRLPRPRPRPQKCPRP, the “shrunken log2 fold change” value is -0.0262. With RRIRIRPPRLPRPRPRPTIVPRP the figure was 0.119; with RRIRWRPPRLPRPRPRPAYAPRP, 0.531. With RRIRKRPPRLPRPRPRPPYQPRP the figure was 0.0608. With RRIRTRPPRLPRPRPRPTCKPRP the figure was -0.047; with RRIRLRPPRLPRPRPRPVWAPRP, 0.424; with RRIRFRPPRLPRPRPRPAWGPRP, 0.144.

Take RRIRGRPPRLPRPRPRPESLPRP: the “shrunken log2 fold change” value was found to be 0.595. With RRIRIRPPRLPRPRPRPCNWPRP the figure was -0.135. Regarding RRIRSRPPRLPRPRPRPMIAPRP, the “shrunken log2 fold change” value was 0.0435. Take RRIRTRPPRLPRPRPRPHSCPRP: the “shrunken log2 fold change” value is -0.0159. Then RRIRSRPPRLPRPRPRPAFQPRP, with -0.0696. On to RRIRVRPPRLPRPRPRPRRMPRP, for which the “shrunken log2 fold change” value is 0.422. Then RRIRKRPPRLPRPRPRPRLNPRP, with 0.489; and RRIRWRPPRLPRPRPRPAKNPRP, with 0.263; and RRIRNRPPRLPRPRPRPNHWPRP, with -0.125. On to RRIRRRPPRLPRPRPRPNELPRP, for which the “shrunken log2 fold change” value came out at 0.457. For the sequence RRIRYRPPRLPRPRPRPQWDPRP, the “shrunken log2 fold change” value was -0.842. Take RRIRSRPPRLPRPRPRPNQMPRP: the “shrunken log2 fold change” value was 0.0306. Regarding RRIRPRPPRLPRPRPRPSAQPRP, the “shrunken log2 fold change” value is -0.0511. With RRIRVRPPRLPRPRPRPTVGPRP the figure was 0.553; with RRIRLRPPRLPRPRPRPVKFPRP, -0.316; with RRIRYRPPRLPRPRPRPKMIPRP, -0.537. RRIRERPPRLPRPRPRPFVHPRP: the “shrunken log2 fold change” value is -0.435. As for RRIRARPPRLPRPRPRPYPYPRP, the “shrunken log2 fold change” value is -0.152. For RRIRGRPPRLPRPRPRPWEAPRP, the “shrunken log2 fold change” value is -0.0319. Then RRIRTRPPRLPRPRPRPKIGPRP, with -0.0689. Take RRIRLRPPRLPRPRPRPVIWPRP: the “shrunken log2 fold change” value was 0.0724. Then RRIRYRPPRLPRPRPRPDAAPRP, with 0.294; and RRIRYRPPRLPRPRPRPPTHPRP, with -0.251. For the sequence RRIRKRPPRLPRPRPRPTSGPRP, the “shrunken log2 fold change” value was -0.064.

On to RRIRERPPRLPRPRPRPTGIPRP, for which the “shrunken log2 fold change” value amounted to 0.0836. As to RRIRGRPPRLPRPRPRPSWKPRP, the “shrunken log2 fold change” value came out at 0.437. Then RRIRMRPPRLPRPRPRPLGGPRP, with 0.548. Then RRIRLRPPRLPRPRPRPHPQPRP, with 0.0301; and RRIRPRPPRLPRPRPRPRHGPRP, with 0.0491.

On to RRIRSRPPRLPRPRPRPTPFPRP, for which the “shrunken log2 fold change” value was -0.0055. Regarding RRIRIRPPRLPRPRPRPMRSPRP, the “shrunken log2 fold change” value was determined as 0.000106. With RRIRYRPPRLPRPRPRPVTYPRP the figure was -0.41; with RRIRIRPPRLPRPRPRPPYYPRP, -0.827. In the case of RRIRLRPPRLPRPRPRPDGPPRP, the “shrunken log2 fold change” value is 0.0394. In the case of RRIRERPPRLPRPRPRPTHAPRP, the “shrunken log2 fold change” value was 0.332. With RRIRWRPPRLPRPRPRPYMFPRP the figure was -0.194; with RRIRFRPPRLPRPRPRPGFAPRP, 0.374; with RRIRGRPPRLPRPRPRPSRFPRP, 0.0371. Take RRIRIRPPRLPRPRPRPPVDPRP: the “shrunken log2 fold change” value was -0.111. Turning to RRIRARPPRLPRPRPRPYEAPRP, the “shrunken log2 fold change” value was -0.222. As for RRIRGRPPRLPRPRPRPETDPRP, the “shrunken log2 fold change” value came to 1.34.

RRIRTRPPRLPRPRPRPKPFPRP: the “shrunken log2 fold change” value is 0.122. In the case of RRIRIRPPRLPRPRPRPVKKPRP, the “shrunken log2 fold change” value is -0.0235. With RRIRNRPPRLPRPRPRPEKWPRP, the “shrunken log2 fold change” value is -0.0101. For RRIRIRPPRLPRPRPRPTEEPRP, the “shrunken log2 fold change” value is 0.146.

Turning to RRIRLRPPRLPRPRPRPYRNPRP, the “shrunken log2 fold change” value was -1.13. As to RRIRNRPPRLPRPRPRPQMHPRP, the “shrunken log2 fold change” value is -0.108. For the sequence RRIRLRPPRLPRPRPRPATFPRP, the “shrunken log2 fold change” value is -0.0149. With RRIRRRPPRLPRPRPRPSWHPRP, the “shrunken log2 fold change” value was -0.0466. For RRIRSRPPRLPRPRPRPFSFPRP, the “shrunken log2 fold change” value was -0.633. With RRIRCRPPRLPRPRPRPHNYPRP, the “shrunken log2 fold change” value is -0.831. With RRIRCRPPRLPRPRPRPTWSPRP the figure was 0.346; with RRIRRRPPRLPRPRPRPFCPPRP, -0.106.

Consider RRIRVRPPRLPRPRPRPIEPPRP, for which the “shrunken log2 fold change” value was -0.065. Turning to RRIRWRPPRLPRPRPRPVAIPRP, the “shrunken log2 fold change” value is -0.0829.

For RRIRERPPRLPRPRPRPTKMPRP, the “shrunken log2 fold change” value was -0.22. Consider RRIRIRPPRLPRPRPRPYFLPRP, for which the “shrunken log2 fold change” value is -0.921.

With RRIRARPPRLPRPRPRPFVLPRP, the “shrunken log2 fold change” value is -0.181. Regarding RRIRARPPRLPRPRPRPTYLPRP, the “shrunken log2 fold change” value is -0.023.

Consider RRIRNRPPRLPRPRPRPYYRPRP, for which the “shrunken log2 fold change” value was 0.0545. For RRIRHRPPRLPRPRPRPQIAPRP, the “shrunken log2 fold change” value is -0.103.

RRIRVRPPRLPRPRPRPSSCPRP: the “shrunken log2 fold change” value was -0.184. As to RRIRLRPPRLPRPRPRPPCKPRP, the “shrunken log2 fold change” value came out at 0.15. Take RRIRPRPPRLPRPRPRPFRNPRP: the “shrunken log2 fold change” value was -0.0931. Then RRIRRRPPRLPRPRPRPENNPRP, with 0.0497; and RRIRARPPRLPRPRPRPNMTPRP, with 0.147; and RRIRNRPPRLPRPRPRPVNQPRP, with 0.214. Turning to RRIRLRPPRLPRPRPRPAFMPRP, the “shrunken log2 fold change” value is -0.112. As to RRIRSRPPRLPRPRPRPKPCPRP, the “shrunken log2 fold change” value turned out to be 0.122. With RRIRKRPPRLPRPRPRPYLQPRP the figure was -0.599; with RRIRNRPPRLPRPRPRPYIIPRP, -0.156; with RRIRGRPPRLPRPRPRPWSDPRP, 0.0554. Turning to RRIRGRPPRLPRPRPRPKWHPRP, the “shrunken log2 fold change” value worked out at 0.542.

In the case of RRIRFRPPRLPRPRPRPHWRPRP, the “shrunken log2 fold change” value turned out to be 0.121.
